Test results taken from article PMC8441146, “DNA-guided photoactivatable probe-based chemical proteomics reveals the reader protein of mRNA methylation”.

Experiments:
DDX1 = target: T1, DDX1 (UniProt Q92499 1-728); experiment: ITC; ITC: 20 mM Tris pH 7.5, 150 mM NaCl, 25 C; YTH labelling: 3 uM YTH, 12 uM BP/CP (200 mM NaCl chosen after optimization); pull-down: HeLa RIPA lysate, 4 C, UV 6; settings: protein: recombinant; tags: pET28a, Ni-NTA purified (His)
T1 sequence: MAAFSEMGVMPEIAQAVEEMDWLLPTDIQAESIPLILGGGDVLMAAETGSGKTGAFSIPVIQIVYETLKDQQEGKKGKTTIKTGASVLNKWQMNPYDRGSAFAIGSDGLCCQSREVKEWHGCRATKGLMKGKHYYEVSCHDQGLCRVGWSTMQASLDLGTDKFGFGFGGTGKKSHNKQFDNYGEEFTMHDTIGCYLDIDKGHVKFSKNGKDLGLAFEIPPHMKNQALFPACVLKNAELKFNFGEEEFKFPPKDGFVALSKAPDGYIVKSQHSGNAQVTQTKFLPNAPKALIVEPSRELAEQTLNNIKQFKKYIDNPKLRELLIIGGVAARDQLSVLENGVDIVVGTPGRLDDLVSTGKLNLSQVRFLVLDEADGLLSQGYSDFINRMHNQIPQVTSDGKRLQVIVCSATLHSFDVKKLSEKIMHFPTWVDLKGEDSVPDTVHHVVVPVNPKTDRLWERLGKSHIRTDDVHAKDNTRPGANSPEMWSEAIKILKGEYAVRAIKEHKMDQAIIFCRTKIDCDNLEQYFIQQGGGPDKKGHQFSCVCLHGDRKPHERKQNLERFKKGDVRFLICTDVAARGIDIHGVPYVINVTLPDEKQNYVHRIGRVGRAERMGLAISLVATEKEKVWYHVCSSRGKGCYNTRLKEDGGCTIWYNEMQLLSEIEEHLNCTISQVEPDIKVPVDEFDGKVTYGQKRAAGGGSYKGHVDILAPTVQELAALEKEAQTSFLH

DDX1 lacking D2 domain = target: T2, DDX1 lacking D2 domain (UniProt Q92499 1-450); experiment: as above; settings: protein: recombinant; tags: pET28a, Ni-NTA purified (His)
T2 sequence: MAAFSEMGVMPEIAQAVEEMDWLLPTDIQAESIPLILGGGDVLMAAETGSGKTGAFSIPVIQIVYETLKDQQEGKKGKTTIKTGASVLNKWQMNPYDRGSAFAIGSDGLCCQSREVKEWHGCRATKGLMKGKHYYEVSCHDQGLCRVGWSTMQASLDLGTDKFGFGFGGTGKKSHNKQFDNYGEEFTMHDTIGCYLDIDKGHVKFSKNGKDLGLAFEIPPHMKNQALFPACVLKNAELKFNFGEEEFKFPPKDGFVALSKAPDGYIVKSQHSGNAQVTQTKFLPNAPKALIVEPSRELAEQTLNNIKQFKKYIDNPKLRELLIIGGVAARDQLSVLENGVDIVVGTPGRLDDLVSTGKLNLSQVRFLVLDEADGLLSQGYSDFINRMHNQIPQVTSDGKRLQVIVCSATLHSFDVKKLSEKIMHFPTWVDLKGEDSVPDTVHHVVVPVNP

## AAGAUC (ssRNA, 2'-O-methyl A) [Am-modified ssRNA (ITC)]
DDX1
  binding result: binds
DDX1 lacking D2 domain
  binding result: no binding
